This note sets out measurements from patent US20210107996A1 (PROMAB BIOTECHNOLOGIES, published 2021).

Usually Kd stands for the free concentration of one partner at which half of the binding sites on the other are occupied at equilibrium, for simple one-to-one binding.

In this test the target is T1, recombinant PLAP extracellular domain protein (Sino Biological) (human, UniProt P05187 23-506).
T1 construct: Bought protein; also called purified recombinant PLAP protein; PLAP antigen
Nature of the test: BLI (Blitz ForteBio); antibody captured on anti-mouse-capture biosensors, PLAP antigen in solution. How it is done:
The binding of PLAP antibody with recombinant PLAP extracellular domain protein from Sino Biological was performed using Blitz ForteBio system as described. In brief, anti-mouse-capture (AMC) biosensors were soaked in kinetics buffer (PBS, 0.1% Tween, 0.05% BSA) for 10 min and then with mouse anti-PLAP antibody at 0.1 mg/mL in same buffer for 30 min. After washing, biosensors were used to bind the PLAP antigen at different concentrations. The Kd was detected with Blitz system software.

T1 sequence (P05187 23-506): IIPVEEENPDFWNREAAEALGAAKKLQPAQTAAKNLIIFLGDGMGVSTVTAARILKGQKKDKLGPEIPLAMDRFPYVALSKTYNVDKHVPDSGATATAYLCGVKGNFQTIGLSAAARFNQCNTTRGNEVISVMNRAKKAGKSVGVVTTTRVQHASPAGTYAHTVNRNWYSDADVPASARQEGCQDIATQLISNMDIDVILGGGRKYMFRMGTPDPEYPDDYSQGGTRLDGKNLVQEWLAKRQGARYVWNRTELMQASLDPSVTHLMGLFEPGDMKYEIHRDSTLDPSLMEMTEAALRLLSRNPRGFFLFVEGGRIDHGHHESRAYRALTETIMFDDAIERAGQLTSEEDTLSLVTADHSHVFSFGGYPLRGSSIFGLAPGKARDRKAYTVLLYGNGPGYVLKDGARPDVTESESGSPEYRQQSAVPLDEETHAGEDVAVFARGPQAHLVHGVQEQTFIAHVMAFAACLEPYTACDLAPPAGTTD

B1: mouse monoclonal PLAP antibody (clone H17E2) (antibody, V domains shown)
VH: QVQLKESGPGLVAPSQSLSITCTVSGFSLTSYGVSWVRQPPRKGLEWLGVIWEDGSTNYHSALISRLSINKDNSKSQVFLKLNSLQTDDTATYYCAKPHYGSSYVGAMEYWGQGTSVTVSS
VL: DIQMTQSPASLTASVGETVTITCRASENIYSYVAWYQQKQGKSPQFLVYNAKSLAEGVPSRFSGSGSGTQFSLKINSLQPEDFGNYYCQHHYVSPWTFGGGTKLEIR
notes: Bought whole mouse monoclonal antibody (Thermo Fisher / Ximbio); also called PLAP antibody H17E2; mouse anti-PLAP antibody
B1: the Kd turned out to be 3.2 nM.
